Results: US12152264B2, “Phosphinothricin dehydrogenase mutant, genetically engineered bacterium and one-pot multi-enzyme synchronous directed evolution method” (ZHEJIANG UNIVERSITY OF TECHNOLOGY, priority 2020, dated 2024)

Legend:
[1] = tested on: Pseudomonas fluorescens phosphinothricin dehydrogenase (PPTDH, PfGluDH; WP_150701510.1) mutant A164G_R205K_T332A, SEQ ID No.1; format: biochemical
[2] = tested on: CP(=O)(O)CCC(=O)C(=O)O; assay: cells, lysate or membranes named; conditions: pH 7.0; 40.0 °C

**Q.** With `CP(=O)(O)CCC(=O)C(=O)O` [PPO, 2-carbonyl-4-(hydroxymethylphosphono)butyric acid] as the compound, how does the “catalytic efficiency (kcat/Km) for PPO, increase compared with the wild type” value [1] read?
**A.** Its value is 145.83 times.

**Q.** For “Pseudomonas fluorescens phosphinothricin dehydrogenase (PPTDH, PfGluDH; NCBI accession number WP_150701510.1), wild type (Pseudomonas azerbaijanoccidentalis)”, which Km [2] is on record?
**A.** The Km was 6.12 ± 0.32 mM.

**Q.** And the kcat [2]?
**A.** Its kcat is 7.47 ± 0.22 s⁻¹.

**Q.** What about the kcat/Km [2] of the same compound?
**A.** The kcat/Km was 1220 M⁻¹ s⁻¹.
